Results reported in patent US20220242962A1 (APTEVO RESEARCH AND DEVELOPMENT, published 2022).

T1: Full-length Cyno OX40 (cynomolgus monkey, UniProt P43489 29-277 (human entry))
T1 construct: on CHO-K1SV cells; also called OXF004; cynomolgus OX40
T1 chain: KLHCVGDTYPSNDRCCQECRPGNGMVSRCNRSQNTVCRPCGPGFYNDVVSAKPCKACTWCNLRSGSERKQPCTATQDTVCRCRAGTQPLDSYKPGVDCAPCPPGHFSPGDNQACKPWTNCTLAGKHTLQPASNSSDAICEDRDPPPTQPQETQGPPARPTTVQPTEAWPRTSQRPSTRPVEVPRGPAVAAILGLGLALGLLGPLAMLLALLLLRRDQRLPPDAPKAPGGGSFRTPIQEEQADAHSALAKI

T2: Fc gamma receptor RIIA H167 (human, UniProt P12318 36-218)
T2 construct: soluble SPR analyte
T2 sequence (looked up): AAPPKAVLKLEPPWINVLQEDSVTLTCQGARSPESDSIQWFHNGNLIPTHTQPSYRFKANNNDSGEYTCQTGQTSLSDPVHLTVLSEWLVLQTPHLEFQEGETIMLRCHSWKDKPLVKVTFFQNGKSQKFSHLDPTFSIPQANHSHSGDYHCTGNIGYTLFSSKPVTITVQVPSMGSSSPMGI

T3: Fc gamma receptor RIIB/C (human, UniProt P31994 46-217)
T3 construct: soluble SPR analyte
T3 sequence (looked up): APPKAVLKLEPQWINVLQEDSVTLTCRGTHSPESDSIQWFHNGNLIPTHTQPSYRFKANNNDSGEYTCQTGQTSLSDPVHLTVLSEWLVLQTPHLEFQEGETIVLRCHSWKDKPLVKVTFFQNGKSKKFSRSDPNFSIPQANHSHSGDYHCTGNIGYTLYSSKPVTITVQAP

T4: Fc gamma receptor RIIA R167 (human, UniProt P12318 36-218)
T4 construct: soluble SPR analyte
T4 sequence (looked up): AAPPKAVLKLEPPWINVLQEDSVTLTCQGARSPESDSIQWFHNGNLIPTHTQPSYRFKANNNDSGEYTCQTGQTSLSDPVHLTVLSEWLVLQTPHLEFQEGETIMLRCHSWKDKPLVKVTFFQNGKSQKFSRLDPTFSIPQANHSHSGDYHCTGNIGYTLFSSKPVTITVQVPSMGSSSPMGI

T5: Full-length Human OX40 (human, UniProt P43489 29-277)
T5 sequence: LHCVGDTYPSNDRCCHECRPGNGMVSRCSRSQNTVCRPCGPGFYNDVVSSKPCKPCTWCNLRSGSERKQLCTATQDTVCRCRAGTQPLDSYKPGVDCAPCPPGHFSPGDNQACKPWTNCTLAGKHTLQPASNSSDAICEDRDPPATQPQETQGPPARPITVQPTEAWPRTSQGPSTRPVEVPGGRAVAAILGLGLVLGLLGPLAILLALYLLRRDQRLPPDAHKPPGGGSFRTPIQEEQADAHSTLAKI

T6: Full-length Cyno 4-1BB (cynomolgus monkey, UniProt Q07011 24-255 (human entry))
T6 construct: on Jurkat or CHO cells; also called FOB006; cynomolgus 4-1BB
T6 chain: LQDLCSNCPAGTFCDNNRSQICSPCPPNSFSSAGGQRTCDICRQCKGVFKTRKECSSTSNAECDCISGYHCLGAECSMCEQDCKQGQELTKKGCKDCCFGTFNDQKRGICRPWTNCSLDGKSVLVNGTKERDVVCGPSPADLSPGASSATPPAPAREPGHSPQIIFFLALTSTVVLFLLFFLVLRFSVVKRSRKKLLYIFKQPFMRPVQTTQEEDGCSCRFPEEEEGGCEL


Assays:
[1] = target: T1, Full-length Cyno OX40; experiment: flow cytometry on CHOK1SV cells transfected with cynomolgus OX40, goat anti-human Fc secondary antibody, MFI (Mean)
Experimental: (§1) Serial dilutions of ADAPTIR™ constructs were incubated with transfected target cells and subsequently labelled with a fluorescently-conjugated goat-a-human Fc secondary antibody. […] (See Example 25.)

[2] = target: T2, Fc gamma receptor RIIA H167; experiment: SPR, construct immobilized, receptor injected at 2 uM
Experimental: (§2) Fcγ receptor binding to bispecific proteins was measured by Surface Plasmon Resonance on a Biacore 8K instrument at room temperature. Bispecific proteins with modified Fc regions to reduce binding to Fcγ receptors were directly immobilized on the surface of a CM5 sensor chip to a surface density of 4000 RU. A bispecific ADAPTIR™ protein with a wild type Fc was similarly immobilized to the surface as a positive control and used as a comparator to evaluate the reduction in binding resulting from changes incorporated into the Fc region amino acid sequence. Fcγ receptors (purchased from R&D Systems) were diluted to either 100 nM (FcγRI) or 2 μM (all other Fcγ receptors) in HBS-EP+ buffer before injecting over the surface of the prepared sensor chip at 30 μL/min for 60 seconds. Maximum RU values during association phase of each injection were used to compare the extent of binding of the modified Fc to wild type value and are reported in Table 17 below.

[3] = target: T3, Fc gamma receptor RIIB/C; experiment: as above
Experimental: as §2

[4] = target: T4, Fc gamma receptor RIIA R167; experiment: as above
Experimental: as §2

[5] = target: Full-length Human 4-1BB (human, UniProt Q07011 24-255); experiment: cell-based or functional assay
Chain of Full-length Human 4-1BB (Q07011 24-255): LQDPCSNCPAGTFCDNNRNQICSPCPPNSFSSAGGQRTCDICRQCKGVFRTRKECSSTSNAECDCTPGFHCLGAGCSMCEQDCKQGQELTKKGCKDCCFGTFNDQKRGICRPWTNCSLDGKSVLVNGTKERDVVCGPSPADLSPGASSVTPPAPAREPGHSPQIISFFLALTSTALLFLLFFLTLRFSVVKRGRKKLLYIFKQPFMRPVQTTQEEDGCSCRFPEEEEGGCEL

[6] = target: T5, Full-length Human OX40; experiment: cell-based or functional assay
[7] = target: T6, Full-length Cyno 4-1BB; experiment: flow cytometry on Jurkat cells transfected with cynomolgus 4-1BB, goat anti-human Fc secondary antibody, MFI (Mean)
Experimental: as §1
Throughout, for 4-1BB Reporter Assay Max induction: unit not given here.
Throughout, for OX40 Reporter Assay Max induction: unit not given here.

Row | EC50 (read off the curve) [1] [nM] | Max RU value during association [2] [RU] | Max RU value during association [3] [RU] | Max RU value during association [4] [RU] | 4-1BB Reporter Assay EC50 [5] [nM] | 4-1BB Reporter Assay Max induction [5] | OX40 Reporter Assay EC50 [6] [nM] | OX40 Reporter Assay Max induction [6] | EC50 (read off the curve) [7] [nM] | Binder
1 | 1 to 2 | 12 | 19 | 89 | 0.018 | 1.36e+06 | 0.019 | 6.29e+06 | ~0.3 | FXX01115 (bispecific antibody, ADAPTIR anti-4-1BB x anti-OX40, pI variant; PAA (del) Fc) EVQLVQSGAEVKKPGASVKVSCKASGYTFTSYWMNWVRQAPGQGLEWMGNIYPSGGSTNYAQKFQGRVTMTVDTSTSTVYMELSSLRSEDTAVYYCASFSDGYYAYAMDYWGQGTLVTVSSGGGGSGGGGSGGGGSGGGGSEIVMTQSPATLSLSPGERATLSCRASQSVSSYLNWYQQKPGQAPRLLIYYASRRHTGIPARFSGSGSGTDFTLTISSLQPEDFAVYYCQQGYNLPYTFGQGTKVEIKEPKSSDKTHTCPPCPAPPAAAPSVFLFPPKPKDTLMISRTPEVTCVVVDVSHEDPEVKFNWYVDGVEVHNAKTKPREEQYNSTYRVVSVLTVLHQDWLNGKEYKCAVSNKALPAPIEKTISKAKGQPREPQVYTLPPSRDELTKNQVSLTCLVKGFYPSDIAVEWESNGQPENNYKTTPPVLDSDGSFFLYSKLTVDKSRWQQGNVFSCSVMHEALHNHYTQKSLSLSPGGGGSPSSYVLTQPPSVSVAPGQTARITCGGNNIGSKSVNWFQQKPGQAPVLVVYDDSGRPSGVPNRFSGSTSGNTATLTISRVEAGDEADYYCQVWDSSSDHVVFGGGTKLTVLGGGGSGGGGSGGGGSGGGGSQVQLVESGGGVVQPGRSLRLSCAASGFTLSYYGMHWVRQAPGKGLEWVAAISHDGSDKYYADSVKGRFTISRDNSKNRLYLQMNSLRAEDTAVYYCSNDQFDPWGQGTLVTVSSR
2 | 1 to 2 | 14 | 22 | 103 | 0.011 | 1.37e+06 | 0.012 | 6.07e+06 | ~0.3 | FXX01119 (bispecific antibody, ADAPTIR anti-4-1BB x anti-OX40, pI variant; PAA (del) Fc) EVQLVQSGAEVKKPGASVKVSCKASGYTFTSYWMNWVRQAPGQGLEWMGNIYPSGGSTNYAQKFQGRVTMTVDTSTSTVYMELSSLRSEDTAVYYCASFSDGYYAYAMDYWGQGTLVTVSSGGGGSGGGGSGGGGSGGGGSEIVMTQSPATLSLSPGERATLSCRASQSVSSYLNWYQQKPGQAPRLLIYYASRRHTGIPARFSGSGSGTDFTLTISSLQPEDFAVYYCQQGYNLPYTFGQGTKVEIKEPKSSDKTHTCPPCPAPPAAAPSVFLFPPKPKDTLMISRTPEVTCVVVDVSHEDPEVKFNWYVDGVEVHNAKTKPREEQYNSTYRVVSVLTVLHQDWLNGKEYKCAVSNKALPAPIEKTISKAKGQPREPQVYTLPPSRDELTKNQVSLTCLVKGFYPSDIAVEWESNGQPENNYKTTPPVLDSDGSFFLYSKLTVDKSRWQQGNVFSCSVMHEALHNHYTQKSLSLSPGGGGSPSSYVLTQPPSVSVAPGKTARITCGGNNIGSKSVNWFQQKPGQAPVLVVYDDSGRPSGVPNRFSGSTSGNTATLTISRVEAGDEADYYCQVWDSSSDHVVFGGGTKLTVLGGGGSGGGGSGGGGSGGGGSQVQLVESGGGVVQPGRSLRLSCAASGFTLSYYGMHWVRQAPGKGLEWVAAISHDGSDKYYADSVKGRFTISRDNSKNRLYLQMNSLRAEDTAVYYCSNDQFDPWGQGTLVTVSSR
